Target: T1, Caveolin-1 1-178 (UniProt Q03135)
T1 chain: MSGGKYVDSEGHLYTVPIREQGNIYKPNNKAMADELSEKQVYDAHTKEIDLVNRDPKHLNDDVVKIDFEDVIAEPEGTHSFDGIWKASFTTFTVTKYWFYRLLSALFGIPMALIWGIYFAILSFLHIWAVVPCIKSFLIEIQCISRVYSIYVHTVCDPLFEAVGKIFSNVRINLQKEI
Assay: given as Ka

B1: PrP (protein)
chain: not shown
- Kd: ~1.18 nM

Reference: article PMC1559926 (2006)
